# B1: TNC-001 (peptide)
# peptide: AMTQLLAGV
# notes: also called IMA-TNC-001
# B2: NLGN4X-001 (peptide)
# peptide: NLDTLMTYV
# notes: also called IMA-NLGN4X-001
# B3: PTP-003 (peptide)
# peptide: AIIDGVESV
# notes: also called IMA-PTP-003
# B4: BCA-002 (peptide)
# peptide: ALWAWPSEL
# notes: also called IMA-BCA-002
# B5: FABP7-001 (peptide)
# peptide: LTFGDVVAV
# notes: also called IMA-FABP7-001
# B6: NRCAM-001 (peptide)
# peptide: GLWHHQTEV
# notes: also called IMA-NRCAM-001
# B7: CHI-001 (peptide)
# peptide: SLWAGVVVL
# notes: also called IMA-CHI-001
# B8: IGF2BP3-001 (peptide)
# peptide: KIQEILTQV
# notes: also called IMA-IGF2BP3-001
# B9: PTP-005 (peptide)
# peptide: KVFAGIPTV
# notes: also called IMA-PTP-005
# B10: MET-005 (peptide)
# peptide: TFSYVDPVITSISPKYG
# notes: also called IMA-MET-005; full-length MET-005
# B11: MET-001 (peptide)
# peptide: YVDPVITSI
# notes: also called MET-005 derived MET-001
# B12: CSP-001 (peptide)
# peptide: TMLARLASA
# notes: also called IMA-CSP-001
# Molecular target: T1, MHC molecule coded by the HLA-A*0201 allele (recombinant HLA-A*0201 heavy chain refolded with beta-2 … (human))
# Assay: ELISA-based MHC refolding assay
row,Binder,binding result
1,B1,binds
2,B2,binds
3,B3,binds
4,B4,binds
5,B5,binds
6,B6,binds
7,B7,binds
8,B8,binds
9,B9,binds

# Molecular target: T1, MHC molecule coded by the HLA-A*0201 …
# Assay: tetramer production / HLA-A*0201 refolding with peptide
row,Binder,binding result
1,B10,no binding

# Molecular target: T1, MHC molecule coded by the HLA-A*0201 …
# Assay: ELISA-based MHC refolding assay, recombinant HLA-A*0201 heavy chain + b2m + graded peptide
row,Binder,Kd [nM]
1,B11,0.14
2,B12,2.05
